Results: PMC7642679

Tests used:
Assay in all cases: SEC
[1] = target: spike-6P D614G with the RBD replacement F338L (SARS-CoV-2)
[2] = target: spike-6P D614G with the RBD replacement G446V (SARS-CoV-2)
[3] = target: spike-6P D614G with the RBD replacement A419V (SARS-CoV-2)
[4] = target: spike-6P D614G with the RBD replacement S373P (SARS-CoV-2)
[5] = target: spike-6P D614G with the RBD replacement A522V (SARS-CoV-2)
[6] = target: spike-6P (HexaPro) SARS-CoV-2 spike protein construct (SARS-CoV-2)
[7] = target: spike-6P D614G with the RBD replacement R408T (SARS-CoV-2)
[8] = target: spike-6P with the D614G substitution (SARS-CoV-2)
[9] = target: spike-6P D614G with the RBD replacement E484Q (SARS-CoV-2)

For “spike-6P D614G with the RBD replacement F338L”, the stoichiometry N [1] was 3.

“spike-6P D614G with the RBD replacement G446V” gave a stoichiometry N [2] of 3.

With “spike-6P D614G with the RBD replacement A419V” the stoichiometry N [3] was 3.

“spike-6P D614G with the RBD replacement S373P” was tested, and the stoichiometry N [4] was 3.

“spike-6P D614G with the RBD replacement A522V” gave a stoichiometry N [5] of 3.

“spike-6P (HexaPro) SARS-CoV-2 spike protein construct” gave a stoichiometry N [6] of 3.

In the case of “spike-6P D614G with the RBD replacement R408T”, the stoichiometry N [7] is reported as 3.

spike-6P with the D614G substitution showed a stoichiometry N [8] of 3.

With “spike-6P D614G with the RBD replacement E484Q” the stoichiometry N [9] was 3.
